Details: Weissella confusa, Thermal, reversible: No, whole UniProt chain shown
[1] = pH 6, DSC, Natrium phosphate Imidazol 50 mM 250 mM, NaCl 300 mM
[2] = pH 7, DSC, Natrium phosphate Imidazol 50 mM 250 mM, NaCl 300 mM
[3] = pH 8, DSC, Natrium phosphate Imidazol 50 mM 250 mM, NaCl 300 mM

B1: L-2-hydroxyisocaproate dehydrogenase wild type, P14295 (protein)
chain: MARKIGIIGLGNVGAAVAHGLIAQGVADDYVFIDANEAKVKADQIDFQDAMANLEAHGNIVINDWAALADADVVISTLGNIKLQQDNPTGDRFAELKFTSSMVQSVGTNLKESGFHGVLVVISNPVDVITALFQHVTGFPAHKVIGTGTLLDTARMQRAVGEAFDLDPRSVSGYNLGEHGNSQFVAWSTVRVMGQPIVTLADAGDIDLAAIEEEARKGGFTVLNGKGYTSYGVATSAIRIAKAVMADAHAELVVSNRRDDMGMYLSYPAIIGRDGVLAETTLDLTTDEQEKLLQSRDYIQQRFDEIVDTL
For B1, the Tm (pH 6, CD, Potassium phosphate 5 mM) was 56.8 °C, the Tm [1] was 62.5 °C and the “unfolding enthalpy (calorimetric)” value [1] was 222 kcal/mol. For the same protein, the “unfolding enthalpy (van 't Hoff)” value [1] was 227 kcal/mol, the Tm (pH 6, DSC, Potassium phosphate 5 mM) was 57.2 °C and the Tm (pH 7, CD, Potassium phosphate 5 mM) was 60.2 °C. For the same protein, the Tm [2] was 55.1 °C, the “unfolding enthalpy (calorimetric)” value [2] was 203 kcal/mol and the “unfolding enthalpy (van 't Hoff)” value [2] was 202 kcal/mol. The Tm (pH 7, DSC, Potassium phosphate 5 mM) was 59.6 °C, the Tm (pH 8, CD, Potassium phosphate 5 mM) was 56.2 °C and the Tm [3] was 44.1 °C. The “unfolding enthalpy (calorimetric)” value [3] was 221 kcal/mol and the “unfolding enthalpy (van 't Hoff)” value [3] was 225 kcal/mol.

Source: FireProtDB (doi:10.1007/s10930-006-9055-y)
